Data: patent US9149523B2, “Compositions and methods for treating cancer and neurodegenerative diseases” (Yeda Research and Development Co. Ltd., priority 2010, dated 2015)

System: HEK 293T cells
Assay: Cell detachment assay 24 h after transfection
Type: cell-based, human
Details: 24 h post-transfection, versus luciferase-transfected control cells, p<0.01 between the two constructs
Description: Cell detachment was assessed as described before (Widau, Jin et al. 2010), by counting the adherent cells left in the tissue culture plate after 24 h of transfection with either DAPk WT or ΔP-Loop. Briefly, cells were washed twice in PBS to remove detached cells. Then, adherent cells were trypsinized and counted with a Countess® Automated Cell Counter (Invitrogen). The extent of cell detachment is defined as (the number of control cells—the number of treated cells)/(the number of control cells), where control cells are HEK 293T cell transected with the irrelevant protein luciferase.
The functional effects of the GTP binding on DAPk's ability to induce some of its canonical phenotypic effects in cell cultures, namely cell rounding and detachment, and membrane blebbing, was assessed. These DAPk associated cellular changes are dependent on DAPk's catalytic activity and have been successfully used in other studies to assess DAPk activity in vivo (Widau, Jin et al. 2010). The necessity of the GTP-binding to the ROC domain for the extent of these effects on HEK 293T cells was examined. This was achieved by comparing DAPk WT to its P-Loop deletant counterpart. FIG. 6A presents a western blot analysis showing even expression levels between the constructs used in the cell detachment assay, ruling out any possibility of false results generated by uneven expression levels. […]

B1: WT protein: tagged human full-length death-associated protein kinase (DAPk), expressed by transfection (protein)
chain: MTVFRQENVDDYYDTGEELGSGQFAVVKKCREKSTGLQYAAKFIKKRRTKSSRRGVSREDIEREVSILKEIQHPNVITLHEVYENKTDVILILELVAGGELFDFLAEKESLTEEEATEFLKQILNGVYYLHSLQIAHFDLKPENIMLLDRNVPKPRIKIIDFGLAHKIDFGNEFKNIFGTPEFVAPEIVNYEPLGLEADMWSIGVITYILLSGASPFLGDTKQETLANVSAVNYEFEDEYFSNTSALAKDFIRRLLVKDPKKRMTIQDSLQHPWIKPKDTQQALSRKASAVNMEKFKKFAARKKWKQSVRLISLCQRLSRSFLSRSNMSVARSDDTLDEEDSFVMKAIIHAINDDNVPGLQHLLGSLSNYDVNQPNKHGTPPLLIAAGCGNIQILQLLIKRGSRIDVQDKGGSNAVYWAARHGHVDTLKFLSENKCPLDVKDKSGEMALHVAARYGHADVAQLLCSFGSNPNIQDKEEETPLHCAAWHGYYSVAKALCEAGCNVNIKNREGETPLLTASARGYHDIVECLAEHGADLNACDKDGHIALHLAVRRCQMEVIKTLLSQGCFVDYQDRHGNTPLHVACKDGNMPIVVALCEANCNLDISNKYGRTPLHLAANNGILDVVRYLCLMGASVEALTTDGKTAEDLARSEQHEHVAGLLARLRKDTHRGLFIQQLRPTQNLQPRIKLKLFGHSGSGKTTLVESLKCGLLRSFFRRRRPRLSSTNSSRFPPSPLASKPTVSVSINNLYPGCENVSVRSRSMMFEPGLTKGMLEVFVAPTHHPHCSADDQSTKAIDIQNAYLNGVGDFSVWEFSGNPVYFCCYDYFAANDPTSIHVVVFSLEEPYEIQLNQVIFWLSFLKSLVPVEEPIAFGGKLKNPLQVVLVATHADIMNVPRPAGGEFGYDKDTSLLKEIRNRFGNDLHISNKLFVLDAGASGSKDMKVLRNHLQEIRSQIVSVCPPMTHLCEKIISTLPSWRKLNGPNQLMSLQQFVYDVQDQLNPLASEEDLRRIAQQLHSTGEINIMQSETVQDVLLLDPRWLCTNVLGKLLSVETPRALHHYRGRYTVEDIQRLVPDSDVEELLQILDAMDICARDLSSGTMVDVPALIKTDNLHRSWADEEDEVMVYGGVRIVPVEHLTPFPCGIFHKVQVNLCRWIHQQSTEGDADIRLWVNGCKLANRGAELLVLLVNHGQGIEVQVRGLETEKIKCCLLLDSVCSTIENVMATTLPGLLTVKHYLSPQQLREHHEPVMIYQPRDFFRAQTLKETSLTNTMGGYKESFSSIMCFGCHDVYSQASLGMDIHASDLNLLTRRKLSRLLDPPDPLGKDWCLLAMNLGLPDLVAKYNTSNGAPKDFLPSPLHALLREWTTYPESTVGTLMSKLRELGRRDAADFLLKASSVFKINLDGNGQEAYASSCNSGTSYNSISSVVSR
modifications: left off: small tags and cut ends
notes: tagged human full-length death-associated protein kinase (DAPk), expressed by transfection
With B1 the cell detachment was 17.4%±7.4%.
